US7132252B2, “Methods for detecting the interaction of compounds with cytochrome P450 using optical molecular sensors” (Invitrogen Corporation, priority 1998, dated 2006)
Values belong to the molecule of their own block, whether it stands above or below them.

Tests used:
[1] = target: CYP2D6 (Homo sapiens, UniProt P10635); experiment: Apparent inhibition constants of drugs for CYP 2D6 with MOBFC as sensor
Description: CYP 2D6 was incubated with 10 μM concentrations of various known inhibitors and drug substrates and residual CYP 2D6 activity assayed with the fluorogenic substrate MOBFC. The assay was performed in a 96-well plate at room temp and at a volume of 100 μl/well. 4×enzyme buffer was prepared and 25 μl was added to each well on the plate, for final assay concentrations of 3.3 mM glucose-6-phosphate, 0.4 units/ml glucose-6-phosphate dehydrogenase and 10 mM MgCl2 in 100 mM K+ phosphate, pH 8.0. […] Six consecutive 1:3 dilutions were made and 50 μl of each was added to appropriate wells on the assay plate. The CYP2D6 was diluted to a solution of 2 pmol/10 μl in 100 mM K+ phosphate and 10 μl was added to each well. 20 μl of buffer was added to each well containing standard. The drug inhibitors were allowed to pre-incubated with the CYP 2D6 enzyme for 1 hr prior to the addition of the MOBFC substrate. […] Hydroxy-trifluoro-methylcoumarin was diluted to 100 μM in K+ phosphate buffer, and seven consecutive 1:2 dilutions were made. […] After addition of 10 μl of 13 mM NADP+ solutions to all wells the assay plate was placed into the fluorescence microtiter plate reader and fluorescence measured at 3 minute intervals for 60 minutes.

[2] = target: T1, CYP 2B6 (Homo sapiens, UniProt P20813); experiment: Kinetic properties of fluorogenic substrates with CYP 2B6; type: biochemical
T1 sequence (P20813 1-491): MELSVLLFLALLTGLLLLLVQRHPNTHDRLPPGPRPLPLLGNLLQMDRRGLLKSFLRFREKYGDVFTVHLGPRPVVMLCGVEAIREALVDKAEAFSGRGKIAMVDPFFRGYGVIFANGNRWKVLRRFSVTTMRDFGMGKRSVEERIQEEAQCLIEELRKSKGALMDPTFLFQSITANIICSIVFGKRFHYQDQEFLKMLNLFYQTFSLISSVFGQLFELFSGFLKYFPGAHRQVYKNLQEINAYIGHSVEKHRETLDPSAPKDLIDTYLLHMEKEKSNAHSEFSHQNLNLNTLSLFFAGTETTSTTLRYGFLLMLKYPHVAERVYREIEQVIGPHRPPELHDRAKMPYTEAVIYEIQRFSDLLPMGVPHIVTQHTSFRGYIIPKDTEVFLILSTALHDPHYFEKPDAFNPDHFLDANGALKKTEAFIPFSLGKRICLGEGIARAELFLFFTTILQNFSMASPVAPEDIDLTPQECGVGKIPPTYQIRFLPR

[3] = target: T2, CYP3A4 (Homo sapiens, UniProt P08684); experiment: Kinetics of BOMR and BR toward CYP 3A4 (FIG. 4); type: biochemical; conditions: from FIG. 4 data
Excerpt: Whichever of the four abstractable hydrogen atoms (designated H^1 and H^2 in this representation of BOMR) is removed in the initial reaction step, with reference to Reaction Scheme 1 of FIG. 1, the hydroxylation product will spontaneously decompose to the free resorufin dye. In addition, the benzyloxy group, attached to the carbon carrying the two hydrogens designated H^2, contributes an inductive electronic effect on that carbon, which can stabilize the radical formed during abstraction of one of the H^2 hydrogens by a cytochrome P450.
Optimization of assay conditions was, and is preferably, accomplished through statistically validated Design of Experiments methodologies, using the commercial software package “Design-Expert®” produced by Stat-Ease® Inc. The data shown in FIGS. 4 and 5 were obtained with initial optimization.

[4] = target: T2, CYP3A4; experiment: Kinetic properties of fluorogenic substrates with CYP 3A4; type: biochemical
Excerpt: For further understanding these terms in the context of this invention, attention is directed to FIG. 4 and the analysis of FIG. 4.
(§1) (respectively, MFC and MR).

[5] = substrate: O=C(OCOCc1ccccc1)c1ccccc1-c1c2ccc(=O)cc-2oc2cc(OCOCc3ccccc3)ccc12; experiment: Kinetic properties of fluorescein-based fluorogenic substrates with CYP 2C8; type: biochemical, human; conditions: other: 100 mM K+ phosphate buffer, pH 7.5
Description: (§2) Dibenzylfluorescein (DBF) was purchased form Gentest, Woburn, Mass. […] DBF, BOMF and DBOMF were diluted from a stock solution of 2 mM in acetonitrile to a 4×concentration of 80 μM in 100 mM K+ phosphate buffer. Seven 1:2 dilutions were made of each substrate of which 25 μl was added to the appropriate wells. […] The cytochrome P450 isozyme CYP3A4 was diluted to give a 0.5 pmol enzyme per well and added in a volume of 10 μl/well in K+ phosphate, pH 8.0. Enzymatic conversion of the substrate to products was allowed to proceed for 1 hour with fluorescence reads taken every four minutes on a fluorescence microtiter plate reader. The solution was illuminated using an 485/20 nm excitation filter and fluorescence emission was detected through a 530/25 nm the emission filter.
(§3) In deviation from the protocol described in Example 32, the phosphate-based buffer (100 mM K+ phosphate, pH 8.0) was replaced throughout the procedure by 100 mM K+ phosphate buffer, pH 7.5. […] Specifically, the substrate dibenzylfluorescein (DBF) (purchased form Gentest, Woburn, Mass.) and the sensor of the present invention DBOMF were tested for activity with CYP 2C8.

[6] = substrate: O=C(OCc1ccccc1)c1ccccc1-c1c2ccc(=O)cc-2oc2cc(OCc3ccccc3)ccc12; experiment: as above; type: biochemical, human; conditions: other: 100 mM K+ phosphate buffer, pH 7.5
Description: as §2, §3

[7] = substrate: COCOc1ccc2cc(C#N)c(=O)oc2c1; experiment: Kinetic properties of fluorogenic substrates with CYP 2C19; type: biochemical, human; conditions: other: — = too low to quantify
[8] = substrate: CCOCOc1ccc2cc(C#N)c(=O)oc2c1; experiment: as above; type: biochemical, human; conditions: other: — = too low to quantify
[9] = substrate: CC(C)Oc1ccc2cc(C#N)c(=O)oc2c1; experiment: as above; type: biochemical, human; conditions: other: — = too low to quantify
[10] = substrate: N#Cc1cc2ccc(OCc3ccccc3)cc2oc1=O; experiment: as above; type: biochemical, human; conditions: other: — = too low to quantify
[11] = substrate: CCN(CC)Cc1cc(=O)oc2cc(OC)ccc12; experiment: as above; type: biochemical, human; conditions: other: — = too low to quantify
[12] = substrate: CCCCCCCCOCOc1ccc2cc(C#N)c(=O)oc2c1; experiment: as above; type: biochemical, human; conditions: other: — = too low to quantify
[13] = substrate: CCOc1ccc2cc(C#N)c(=O)oc2c1; experiment: as above; type: biochemical, human; conditions: other: — = too low to quantify
[14] = substrate: N#Cc1cc2ccc(OCOCc3ccccc3)cc2oc1=O; experiment: as above; type: biochemical, human; conditions: other: — = too low to quantify
[15] = substrate: CCCCCCCCOCOc1ccc2nc3ccc(=O)cc-3oc2c1; experiment: as above; type: biochemical, human; conditions: other: — = too low to quantify
[16] = substrate: CC(C)Oc1ccc2cc(C#N)c(=O)oc2c1; experiment: Kinetic properties of fluorogenic substrates with CYP 2D6; type: biochemical, human; conditions: other: — = too low to quantify
Excerpt: as §1

[17] = substrate: COCOc1ccc2nc3ccc(=O)cc-3oc2c1; experiment: as above; type: biochemical, human; conditions: other: — = too low to quantify
Excerpt: as §1

[18] = substrate: COc1ccc(COc2ccc3nc4ccc(=O)cc-4oc3c2)cc1; experiment: as above; type: biochemical, human; conditions: other: — = too low to quantify
Excerpt: as §1

[19] = substrate: COc1ccc(COc2ccc3c(C(F)(F)F)cc(=O)oc3c2)cc1; experiment: as above; type: biochemical, human; conditions: other: — = too low to quantify
Excerpt: as §1

[20] = turnover rate at 1.25 uM substrate, — = too low to quantify
[21] = turnover rate at 10 uM substrate, — = too low to quantify

T2 sequence (P08684 whole entry): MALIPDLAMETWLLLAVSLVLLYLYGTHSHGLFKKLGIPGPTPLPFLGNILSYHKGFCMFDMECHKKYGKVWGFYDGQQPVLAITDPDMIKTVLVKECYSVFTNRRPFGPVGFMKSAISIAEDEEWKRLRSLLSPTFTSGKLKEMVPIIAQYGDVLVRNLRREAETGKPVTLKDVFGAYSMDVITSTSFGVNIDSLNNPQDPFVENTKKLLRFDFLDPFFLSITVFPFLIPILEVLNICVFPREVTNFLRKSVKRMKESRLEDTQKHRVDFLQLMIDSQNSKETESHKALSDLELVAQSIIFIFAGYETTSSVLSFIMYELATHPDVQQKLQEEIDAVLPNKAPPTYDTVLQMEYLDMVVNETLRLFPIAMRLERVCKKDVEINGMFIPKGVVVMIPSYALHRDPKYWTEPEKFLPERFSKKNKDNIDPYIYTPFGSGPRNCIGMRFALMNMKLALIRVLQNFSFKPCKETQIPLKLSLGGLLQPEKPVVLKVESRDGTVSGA

Molecule: CC[C@H]1[C@@H]2C[C@H]3[C@@H]4N(C)c5ccccc5[C@]45C[C@@H]([C@@H]2[C@H]5O)N3[C@@H]1O [Amjaline]
Ki [1]: > 30000 nM

type of kinetics [2]: notMichaelis-Menten
v (1.25 uM) [2, 20]: 0.42 min⁻¹
v (10 uM) [2, 21]: 0.42 min⁻¹
turnover rate (kcat) [3]: 0.00167 s⁻¹
Km ([3]; human, CYP 3A4 enzyme): 5.3 µM
type of kinetics [4]: Michaelis-Menten
v (1.25 uM) [4, 20]: 0.02 min⁻¹
v (10 uM) [4, 21]: 0.08 min⁻¹
Molecule: O=c1ccc2nc3ccc(OCc4ccccc4)cc3oc-2c1 [BR, Benzylresorufin, reference compound]

Molecule: CN(C)CCC(c1ccc(Cl)cc1)c1ccccn1 (stereo not shown) [Chlorpheniramine]
Ki [1]: 2500 nM

B1: CYP 2C8 (Homo sapiens) (protein)
chain: MEPFVVLVLCLSFMLLFSLWRQSCRRRKLPPGPTPLPIIGNMLQIDVKDICKSFTNFSKVYGPVFTVYFGMNPIVVFHGYEAVKEALIDNGEEFSGRGNSPISQRITKGLGIISSNGKRWKEIRRFSLTTLRNFGMGKRSIEDRVQEEAHCLVEELRKTKASPCDPTFILGCAPCNVICSVVFQKRFDYKDQNFLTLMKRFNENFRILNSPWIQVCNNFPLLIDCFPGTHNKVLKNVALTRSYIREKVKEHQASLDVNNPRDFIDCFLIKMEQEKDNQKSEFNIENLVGTVADLFVAGTETTSTTLRYGLLLLLKHPEVTAKVQEEIDHVIGRHRSPCMQDRSHMPYTDAVVHEIQRYSDLVPTGVPHAVTTDTKFRNYLIPKGTTIMALLTSVLHDDKEFPNPNIFDPGHFLDKNGNFKKSDYFMPFSAGKRICAGEGLARMELFLFLTTILQNFNLKSVDDLKNLNTTAVTKGIVSLPPSYQICFIPV
Km [5]: 3.6 µM
kcat [5]: 0.035 s⁻¹
kcat/Km [5]: 9722 M⁻¹ s⁻¹
Km [6]: 2.0 µM
kcat [6]: 0.0067 s⁻¹
kcat/Km [6]: 3333 M⁻¹ s⁻¹

B2: CYP 2C19 (Homo sapiens) (protein)
chain: MDPFVVLVLCLSCLLLLSIWRQSSGRGKLPPGPTPLPVIGNILQIDIKDVSKSLTNLSKIYGPVFTLYFGLERMVVLHGYEVVKEALIDLGEEFSGRGHFPLAERANRGFGIVFSNGKRWKEIRRFSLMTLRNFGMGKRSIEDRVQEEARCLVEELRKTKASPCDPTFILGCAPCNVICSIIFQKRFDYKDQQFLNLMEKLNENIRIVSTPWIQICNNFPTIIDYFPGTHNKLLKNLAFMESDILEKVKEHQESMDINNPRDFIDCFLIKMEKEKQNQQSEFTIENLVITAADLLGAGTETTSTTLRYALLLLLKHPEVTAKVQEEIERVIGRNRSPCMQDRGHMPYTDAVVHEVQRYIDLIPTSLPHAVTCDVKFRNYLIPKGTTILTSLTSVLHDNKEFPNPEMFDPRHFLDEGGNFKKSNYFMPFSAGKRICVGEGLARMELFLFLTFILQNFNLKSLIDPKDLDTTPVVNGFASVPPFYQLCFIPV
Km [7]: 3.2 µM
kcat [7]: 0.00833 s⁻¹
kcat/Km [7]: 2060 M⁻¹ s⁻¹
Km [8]: 16.6 µM
kcat [8]: 0.095 s⁻¹
kcat/Km [8]: 5720 M⁻¹ s⁻¹
Km [9]: 57.2 µM
kcat [9]: 0.0325 s⁻¹
kcat/Km [9]: 568 M⁻¹ s⁻¹
Km [10]: 6.4 µM
kcat [10]: 0.00167 s⁻¹
kcat/Km [10]: 234 M⁻¹ s⁻¹
Km [11]: 8.5 µM
kcat [11]: 0.0067 s⁻¹
kcat/Km [11]: 784 M⁻¹ s⁻¹
Km [12]: 6.9 µM
kcat [12]: 0.0283 s⁻¹
kcat/Km [12]: 4106 M⁻¹ s⁻¹
Km [13]: 41.0 µM
kcat [13]: 0.0283 s⁻¹
kcat/Km [13]: 671 M⁻¹ s⁻¹
Km [14]: 14.0 µM
kcat [14]: 0.0317 s⁻¹
kcat/Km [14]: 2260 M⁻¹ s⁻¹
Km [15]: 0.7 µM
kcat [15]: 0.00283 s⁻¹
kcat/Km [15]: 4048 M⁻¹ s⁻¹

B3: CYP 2D6 (Homo sapiens) (protein)
chain: MGLEALVPLAVIVAIFLLLVDLMHRRQRWAARYPPGPLPLPGLGNLLHVDFQNTPYCFDQLRRRFGDVFSLQLAWTPVVVLNGLAAVREALVTHGEDTADRPPVPITQILGFGPRSQGVFLARYGPAWREQRRFSVSTLRNLGLGKKSLEQWVTEEAACLCAAFANHSGRPFRPNGLLDKAVSNVIASLTCGRRFEYDDPRFLRLLDLAQEGLKEESGFLREVLNAVPVLLHIPALAGKVLRFQKAFLTQLDELLTEHRMTWDPAQPPRDLTEAFLAEMEKAKGNPESSFNDENLRIVVADLFSAGMVTTSTTLAWGLLLMILHPDVQRRVQQEIDDVIGQVRRPEMGDQAHMPYTTAVIHEVQRFGDIVPLGVTHMTSRDIEVQGFRIPKGTTLITNLSSVLKDEAVWEKPFRFHPEHFLDAQGHFVKPEAFLPFSAGRRACLGEPLARMELFLFFTSLLQHFSFSVPTGQPRPSHHGVFAFLVSPSPYELCAVPR
Km [16]: 18 µM
kcat [16]: 0.0017 s⁻¹
kcat/Km [16]: 93 M⁻¹ s⁻¹
Km [17]: 8 µM
kcat [17]: 0.00567 s⁻¹
kcat/Km [17]: 708 M⁻¹ s⁻¹
Km [18]: 3.1 µM
kcat [18]: 0.000817 s⁻¹
kcat/Km [18]: 263 M⁻¹ s⁻¹
Km [19]: 5.0 µM
kcat [19]: 0.01 s⁻¹
kcat/Km [19]: 2067 M⁻¹ s⁻¹
